This data set is described as follows: label from the status in PepcDB records.
Consider “MIKRDFRKKLTMCLASVMALNLGISVSVKADEGLKNEIKNNDITKDISIYPTPKDMTVGNSEFTLEDSVNIVGGDLADTYAFELLKNMLTEFGIKINESEIEGATTIYIGESDDNIEEMENTLEEMNVDTSSISKDEGYVLVTDENIEGNKIVIRGNDETGTFYGVKSLKQLIKKEDNKVILDEVVIKDEPSFKMRAVVEGFYGTPWSQEERLDQIKMYGEYKMNAYIYAPKSDPYHREKWREPYPASELDRMKELIKTANENKVDFVFAISPGLDIKFEGEEGEADFKALINKAETLYDMGVRSFAILWDDIENRSGVQQAEVLNRFNKEFIKNKEGVKPLITVPVEYWGSSMFNGEEVKTYTKEFAETLDKDIEVMWTGNDVIPPNGVSLEDAKKVSNVYNRKMMLWWNYPVNDYKEDKMALGPIYDLDRNLDEDVSGFIVNPMRFSDASKISTLTGADYGWNSISYEAEKSWDKAIEIIAGEMKEEFKIFANHSTRLDTGRPDSPEIKNTIDSLWEKWEAGSDISLELSNLQNEFSKMVQVPNKLRSNLENKALLNQLDSHLSKFEIYGNAGLKSIEILQDILNKDMSEFWSDNFEGIKLLRNLDGIKATIANNVVDPFIRKVHEVGNEYFNKETTVLEEKEYSYTSIGNIVDHKYSEWFISEETHVPNYMFDDKDNTGFWSAAPVQKDEFIGFDLGEAEEIKDIYLLMGRNNNDTDVLTNGVIEYSLDGENWTELEVNKGERELLVETGIKARFIRYRALSDSENKLYVRDFKVNTGKSKEKLIGDVEVKDSNINKSSEGENEIISASNINKISFEEGDSIGLAINDVKNVIGFEVLGDVESNKFVLESSFDNIEWEEVCNGTSFKDETPLVGKFFRIRAKEKTEANINEIKISLEGYSKGIVSTNRRISSNANIHPDFVADNDYGTSFVCSDTIKKGDFVQLDLGVEKKIRDISLVQGPGGDYMDGDIEYSLDGENWIKLGVVEGTDTLIKDLDVKARYVRVISTGYKDRWSRVREFTVNKTVKEFETKATSEGTYIDRSENIRDNNLNSAYIPEGEIKSGDYLLRRIFNERLVSKVTVAQSTDNLSGAKVIGKTVNGETLDLGVLDKGLNELVLKNPRQLVSVKLVWEKDAGKVEIFEVKPTFVSLDYIIEDIKNEIQRGKDVLVEHKDKENEERTQLEEALKNIENLLNNKASDDEIVRAYEDLTNKINNFIDSEPNKEEENKPSKPEGGENGSEGEGDKEDSGDKNENEDNKDENGNLPNTGSPLGAGELMLVGAALATLGGVTIKKKK”, for which the protein production entry is “failed”.

As for “MIKSFRHKGLKKFFESGSTAGIQPAHKNRLARQLHQLNVASCPDDMNLPGWGLHLLQGKNPKKQDVDGHYSISVNGNWRLTFYFDHGDAVLVDYQDYH”, the protein production result was “failed”.

In the case of “MIKSKGDVNILLNFRHNINGEDLIIAVAQDHETGEVLMVAYMNREALRRTLETGTAHYWSTSRGKLWLKGESSGHVQRVKDVLVDCDGDAVVLKVEQEGGACHTGYRSCFYRSIDGDELKVREDAVKVFDPEEIYGDG”, the protein production result was “not failed”. In the case of “MIKSTNIQAIGSGIMHQINNVYSLTPLSLPMELTPSCNEFYLKTWSEWEKNGTPGEQRNIAFNRLKICLQNQEAELNLSELDLKTLPDLPPQITTLEIRKNLLTHLPDLPPMLKVIHAQFNQLESLPALPETLEELNAGDNKIKELPFLPENLTHLRVHNNRLHILPLLPPELKLLVVSGNRLDSIPPFPDKLEGLALANNFIEQLPELPFSMNRAVLMNNNLTTLPESVLRLAQNAFVNVAGNPLSGHT” it was “failed”. Next, “MIKTHYAKLALSAFAVSILASCANLGMTGVADGNNSEQTYLGQINYQDQTITKASAKKLNREIDLQRASQLTLWAMPMVGMYQSYNSTIALFDLQEGDAPIIGLHEGYDGVYPFLTANVTTPYTISLVDLSETGPYVVNIPAGSIFGVANNAWQEPIKEIGSGNKETLLFVGPGQEYPKDFDGEVIQSDTNQILYFYRVLGVGAEAEKLKTAVTAYKLSDVANPPQVKFVIYKPKASDADVTIATQPRGMAYWEVVNQYIQNEPMADRDRFFYAWLKDLGIEKGKAFNPTPYQKEILLEGVNTGMAMAQSLAFNKTKKKFSSSLYGSDSGWEGVLAGMDPKIDLDTYSMINERTAYTYEAVTTSAGMIVENPGHGSAYIGSYYDADGNALMGGKNYTLHIEPNPPAANFWSITVYDIKNRLIIRNEIKRSDLSSRSESLVMNSDGSVDLYFGPEAPEGKEGNWIQSNDGESYFMYLRLYGPEQEYFDQTYPMNKIDKTK”: “failed”. In the case of “MIKVRVASRARAAEGIAQLDLVCAEGRDLPAFEAGAHIDLFLGNGLTRQYSLCSDPAERSFYRIAVLRELTSRGGSAYVHEALTEGATLEISPPRNLFALDETAEEHLLFAGGVGVTPILAMAKRLSALGRAFTFHYCARDRSRAAFLNELSTAPFTSAVRLSFDAEPDTRLDLDVALARPKPGRRLYVCGPGGFMTHVIDGALARGWSGDQIRKEHFAAAPLSAGQDQPFELVIASSGQIVTVAADQTAAQALEAAGVFVPVSCEQGVCGTCLTRVIDGQPDHRDAFQTDEERAANDQFTPCCSRARSPRLVLDL”, the protein production result is given as “failed”. “MIKVWLQQGRGLWLALFLGLLSPALVHAEEAPPGLVKVPLDRRVIDLTATLDSATQERMVHKLEALEQRRGAQIAVMLVPNLGQQSIEALSNQLFRAWKLGRKGVDDGILLLVAKNDHKVRIEVGYGLEPVVTDLLAGQIIAQDLTPAFRQGDFAGGIDRALDDLILLVDGGSLPEPAGLAVPLEAYALLLAFVFGSVAGVMLAAGWNWRRVLGGAVVLMAVLVGAVGGHEWLAQLFLVPLCMLIGGATFAGLWQARRVFYGVLGLLLYIGLLTLVSQYLGRLTFLYGLAWPAGVLLVLGGHWLLYWMMRNSWRKSPRGFLWRFAVLLTLVLLMGLGVDAWQAAQRWLRVVPFAYFLSFILFAGGSGFRWSSGGGSSSGGRSSSGGGFSGGGGSSGGGGASGSW”: the protein production entry is on record as “failed”. For “MILHRYLLRESLPVLLLALLFLTAVYLFGFFYAGARWLEGVPLPKILRWLSYHVPGIWVQVFPIALVTTTVLVFGRLAAEGAHFALLSAGIPLGRAALPLVAVGAVLSGLALYLQEYVVPEANNRVRVAWWDEIHTQGAGLFRLKGMQIPIGQGKSLYFQDFDMAAKEMVGVRITAFQGEVGTFLFAERGTWEDKTLTLKDYRYYQVDFAQVPGLETAPDLLAQVRRVFRVVSQGKTLEVTSDLSRARAIADYADTFSFGQDSLSEAWRKLKDPFLPPLEKWRARLELHSKLALPLANLVLVLLAAAMALRYGKSPGLALGMSVVLALAYYGAFFLGRALAGIGALPPELGAWGANLLFLLLGLRALR”, the protein production entry is reported as “failed”. Next, “MILKSSIDRLLQTIDIVEVISSYVNLRKSGSSYMACCPFHEERSASFSVNQIKGFYHCFGCGASGDSIKFVMAFEKLSFVEALEKLAHRFNIVLEYDKGVYYDHKEDYHLLEMVSSLYQEELFNAPFFLNYLQKRGLSLESIKAFKLGLCTNRIDYGIENKGLNKDKLIELGVLGKSDNDQKTYLRFLDRIMFPIYSPSAQVVGFGGRTLKEKAAKYINSPQSKLFDKSSLLYGYHLAKEHIYKQKQVIVTEGYLDVILLHQAGFKNAIATLGTALTPSHLPLLKKGDPEILLSYDGDKAGRNAAYKASLMLAKEQRRGGVILFENNLDPADMIANGQIETLKNWLSHPMAFIEFVLRRMADSYLLDDPLEKDKALKEMLGFLKNFSLLLQSEYKPLIATLLQAPLHVLGIRERVSFQPFYPKTEKPNRPQRFAHVSSAPSLEFLEKLVIRYLLEDRSLLDLAVGYIHSGVFLHKKQEFDALCQEKLDDPKLVALLLDANLPLKKGGFEKELRLLILRYFERQLKEIPKSSLPFSEKMICLKKARQAIMKLKQGELVAI”: “failed”; “MILLGVSERSDHSLHITGVDDAHKLVQDFWNTVHDSSTISSVVLSENDVVVRHTGQGDIVSIDIPRASRERIPVYVGPNPLKGSYRRNGDGDYLCDSETVHAMLRDSDLRPLDRKIVGG”: “failed”. Regarding “MILMMENRMPKGIQKTETSEKNIEKVLNAYDKQQHHHQDDLAIQYLPAVRAMAFRLKERLPSSIDFNDLVSIGTEELIKLARRYESALNDSFWGYAKTRVNGAMLDYLRSLDVISRSSRKLIKSIDIEITKHLNEHGKEPSDAYLAQTLGENIEKIKEAKTASDIYALVPIDEQFNAIEQDEITKKIEAEELLEHVQKALNQMSEREQILIQLYYFEELNLSEIKEILGITESRISQIIKEVIKKVRKSLGVDHG”, the protein production entry is “failed”.

Take “MILPWLILIPFIGGLLCWLGERFGATLPRWIALLTMTLELALGLWLWAHGNYSFAPAPGADPTWAIEFKHVWIERFGINVHLALDGLSLLMILLTGLLGILSVLCSWKEIQRHVGFFHLNLMWILGGVVGVFLALDLFMFFFFWEMMLVPMYFLIALWGHSSADGKKTRIYAATKFFIFTQASGLIMLVAILGLVLVNFNNTGVITFDYAQLLKTKMSTATEYILMLGFFIAFAVKLPVVPFHSWLPDAHAQAPTAGSVDLAGILLKTAAYGLLRFALPLFPNASAEFAPIAMTLGLIGIFYGAFLAFAQTDIKRLIAFSSVSHMGFVLIGIYSGSQQALQGAVIQMLAHGVSAAALFILSGQLYERTHTRDMREMGGLWSRIAYLPAISLFFAAASLGLPGTGNFVGEFLILIGTFVSAPWITAIATSGLVFGSVYSLIMIHRAYFGPSKSDAVLHGMDARELIMVLGLAVLLIYIGVYPQPFLDTSAATMHGVQQWLSTAFTQLASAR”: the protein production result is given as “failed”.

For “MILSMSGVVLLGIVVFLFFRKDGLKGTHACTCALFGFYLSSTAIAPSIKAGGASLASLLGGIRF”, the protein production entry is reported as “failed”. Turning to “MILSMSIFGSIGFFSVQTGLPSFELVFVRCICATIFLALCWLVTGQYKSEQWNKKEIMQILACGVFLVFNWVFLFKAFEVMSITIAISVYHLAPIIVLMIGSIVFKERLTMFAVLSIVICFIGTVLVAGVDGSLSLEKLMSSGMVWALLAALFYAFTTLLGKGIQHTSAYAMTFLQTFLGIFLLLPFVDFGKFQGLTEMNWMMITATGLIHTGFVYYLFFDSLRDLSTRMISVLVFLDPAVAILLDTVFTGFRPTSMQVVGIVLIFVGMAFTFRKTKDEEIAVKEKLYS”, the protein production entry is given as “failed”.

Regarding “MILTILIGAMAAIFIAFNLFEKKEKYGVVSYKTIALSVTYVILAVIVGSFLDNFNTLFQGFHDSLTAAKRY”, the protein production entry is reported as “failed”. With “MILTRSSLVKRLTLMIMFAVIAVLVVAGISFNMLSQHHFRMLDEQALSEKLESTRHILSIQAPGTGMEELRPQLRALLGAHQDLTAEILTSEGEVLFSDLKAVQIPDKYKRADKEEMWEWQDESHNFRGITTDVEIQGQPAPGTVMLMLDITSHAHFFETLQRWFAIGLVISALVSAGIGWLVAKSGLRPVEQITKVATSISARSLQERIPLEPVPLELQTLILSFNGMLARLEDAFVRLSNFSADIAHELRTPVSNLLTHTEVVLTRKRDVDAYEENLYSNLEDLKRMSRMIDDMLFLAKSDNGLIIPEQVDIQLHDLVSKLFEYYQLLADDRGIRLTLQGKGVISGDRLMIDRAVSNILSNAVRYTPDGSGISVEIQQAADKVTLTIKNGGATIDPQHINKIFDRFYRADPARREGGPSNAGLGLAITRSIVKAHDGKVWCTSSEGVTAFNFIFPAAHRTAHIRTRH”, the protein production entry is listed as “failed”. On to “MILTSTEGQEGLPRYFPQVMKMLARMQAGRLDIALPDGRVFRSEGPEPGPVARVDIHDTDVFARLIREGELGFSDAYLEQDWSTPDLRAFMDLVHQGEETVYDGFTGQFLARAYERLRFWLQRNHRKQAKKNISYHYDLGNDFYALWLDETMTYSSALFETGQESLEKAQEAKYASLLDEMGAQPGDHILEIGCGWGGFAEYAARQRGMRVTGLTISQEQFKFARERIEKAGLSDQVHFKLQDYRDETGSYDGIASIEMFEAVGEKYWPVYFDTVRARLKPGKRATLQIITVADRRWEIYRNGVDFIQKYIFPGGMLPAPGILREQVARAGLEFVQSREFGKSYDLTLRRWYETFNDKWDQVAELGFDDRFRRMWNFYLTSCGAAFDTGTCDVTQMTVARPNHS”, for which the protein production entry is reported as “failed”.
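Further: failed if final PepcDB status was selected cloned or expressed and not failed if soluble or beyond.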
